Usually stoichiometry N stands for a count of units in the complex or per binding partner.

In PMC7575002 one finds stoichiometry N data, which are given here for 1 molecule.

This test has as its target T1, major tail protein gpV of bacteriophage lambda, in free tails (bacteriophage lambda), P03733.
T1 chain: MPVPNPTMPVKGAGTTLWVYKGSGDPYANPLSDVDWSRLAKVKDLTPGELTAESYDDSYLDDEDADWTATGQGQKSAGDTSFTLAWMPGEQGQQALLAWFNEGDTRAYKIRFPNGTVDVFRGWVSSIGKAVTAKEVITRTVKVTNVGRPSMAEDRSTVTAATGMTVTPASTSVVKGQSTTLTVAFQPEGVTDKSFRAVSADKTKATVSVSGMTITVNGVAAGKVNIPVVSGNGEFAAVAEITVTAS
Put plainly: cryo-EM structure. Conditions: remark: other sources report otherwise.

B1: major tail protein gpV of bacteriophage lambda, in free tails, P03733 1-246 (natural protein)
chain: T1 chain
B1: the stoichiometry N stood at 6.
